Literature values, collected in US11707610B2, “Ingestible device for delivery of therapeutic agent to the gastrointestinal tract” (BIORA THERAPEUTICS, INC., priority 2019, dated 2023).
Read-outs that look alike come from different tables or passages of the source. Blank lines part the entries; values can stand above or below the substance they belong to.

What was measured:
[1] = for Approved Dosing Info: Bio Avail: Table 16, approved injection, Admin SC; for bioavailability: by SC injection
[2] = self-administration of 360,000 units, medical observation

Substance: infliximab [Remicade ®]
Storage temperature: time at 30° C. (30° C.): to 12 months

Substance: adalimumab
Approved Dosing Info: Bio Avail [1]: 64%
bioavailability [1]: 64%
bioavailability ([1]; listed as Adalimumab): approximately 64%
half-life ([1]; in vivo): approximately 2 weeks
primary mode of elimination ([1]; in vivo): intracellular catabolism

Substance: Human Growth Hormone [Genotropin ®]
Storage temperature: time after reconstitution (2-8° C., after reconstitution): 2-8 °C 4 weeks

Substance: certolizumab-pegol [Cimzia ®]
Storage temperature: time at room temp (room temp): 2 hrs at

Substance: semaglutide [compound 4]
Approved Dosing Info: Bio Avail [1]: 89%

outcome of overdose [2]: no notable sequelae
stability at room temperature (room temperature): stable
bioavailability [1]: approximately 87%
primary mode of elimination ([1]; in vivo): kidneys
Substance: Dalteparin

Substance: etanerecpt [Embrel ®]
Storage temperature: time at 25° C. (25° C.): 14 days
